Where two headings read alike, the source gives them in different places. Blank lines part the entries; values can stand above or below the binder they belong to.
Assays:
[1] = molecular target: Cynomolgus macaque ASGR1 on CHO-S cells (Cynomolgus macaque); assay: Guava flow cytometry on CHO-S cells expressing cynomolgus ASGR1 (repeat of Table 15)
[2] = molecular target: T1, rat ASGR1 on CHO-S cells (rat) (UniProt P02706); assay: Guava flow cytometry on CHO-S cells expressing rat ASGR1
T1 sequence (looked up): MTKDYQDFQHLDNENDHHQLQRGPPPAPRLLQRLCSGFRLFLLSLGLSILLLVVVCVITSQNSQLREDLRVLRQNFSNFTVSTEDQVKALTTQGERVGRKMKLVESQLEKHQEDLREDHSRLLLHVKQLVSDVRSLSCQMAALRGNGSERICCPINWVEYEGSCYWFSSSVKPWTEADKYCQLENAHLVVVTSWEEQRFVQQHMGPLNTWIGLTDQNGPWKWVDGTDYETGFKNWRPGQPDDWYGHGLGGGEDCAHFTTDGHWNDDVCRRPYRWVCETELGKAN

[3] = molecular target: Cynomolgus macaque ASGR1 on CHO-S cells (Cynomolgus macaque); assay: Guava flow cytometry on CHO-S cells expressing cynomolgus ASGR1
[4] = molecular target: T1, rat ASGR1 on CHO-S cells (rat); assay: Guava flow cytometry on CHO-S cells expressing rat ASGR1 (repeat of Table 16)
[5] = molecular target: human ASGR1 (asialoglycoprotein receptor 1) on cells (human) (UniProt P07306); assay: flow cytometry on HepG2 cells, anti-human IgG PE secondary, MFI (Geo Mean)
Chain of human ASGR1 (asialoglycoprotein receptor 1) on cells (human) (P07306 whole entry): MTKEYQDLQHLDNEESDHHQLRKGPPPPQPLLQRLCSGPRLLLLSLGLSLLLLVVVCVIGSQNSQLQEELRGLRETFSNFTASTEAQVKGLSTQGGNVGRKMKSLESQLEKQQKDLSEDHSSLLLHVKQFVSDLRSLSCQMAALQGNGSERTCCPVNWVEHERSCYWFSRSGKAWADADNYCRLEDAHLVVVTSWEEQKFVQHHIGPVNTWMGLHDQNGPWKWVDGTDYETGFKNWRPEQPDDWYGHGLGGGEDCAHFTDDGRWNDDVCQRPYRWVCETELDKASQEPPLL

[6] = molecular target: human ASGR1 (asialoglycoprotein receptor 1) on cells (human) (UniProt P07306); assay: as above; remark: listed apart in the source

EC50 [1]: 0.36 nM
EC50 [2]: 0.38 nM
EC50 [3]: 0.36 nM
EC50 [4]: 0.38 nM
EC50 (read off the curve) [5]: 0.2 µg/mL
B1: ASGR1 mAb-B (antibody, from another filing, V domains shown)
VH: EVQLVESGGGLVKPGGSLRLSCAASGFTFSSYSMNWVRQAPGKGLEWVSSISGSSSYIYYADSVKGRFTISRDNAKNSLYLQMNSLRAEDTAVYFCARGGSRGFDPWGQGTLVTVSS
VL: DIQMTQSPSSLSASVGDRVTITCRASQSITSYLNWYQQKPGKAPKLLIYTASSLQSGVPSRFSGSGSGTDFTLTISSLQPEDFATYYCQQSHSFPFTFGPGTKVDIK

EC50 (read off the curve) [6]: 0.6 µg/mL
EC50 [1]: 1.07 nM
EC50 [2]: 3.22 nM
EC50 [3]: 1.07 nM
EC50 [4]: 3.22 nM
EC50 (read off the curve) [5]: 0.5 µg/mL
B2: ASGR1 mAb-A (antibody, from another filing, V domains shown)
VH: QVQLVQSGTEVKKPGASVKVSCKASGYTFTNYDINWVRQATGQGLEWMGWMHPNSGNTGYAQKFQGRVTLTRNTSISTAYMELSSLRSEDTAVYYCASSSGWYYFDYWGQGTLVTVSS
VL: DIVMTQSPDSLAVSLGERATINCKSSQSILHSSNNNNYLAWFQQKPGQPPKLLLYWASTRESGVPDRFSGSGSGTDFTLTISSLQPEDVAVYYCQQYYNTPVTFGPGTKVGIK

— US20210130473A1, “TGFßR1 INHIBITOR-ASGR ANTIBODY CONJUGATES AND USES THEREOF” (Silverback Therapeutics, Inc., priority 2019, published 2021)
